Measured values reported in publication PMC2115704 (The Journal of Cell Biology, 1989).

Molecular target: the molecule itself
Test: SDS-PAGE in the absence of reductant

B1: platelet thrombospondin (natural protein)
chain: not shown
modifications: iodinated (residues not stated)
  stoichiometry N: 3
